Test results published in patent JP2014195458A (dated 2014).

Tests used:
[1] = target: T1, recombinant human interleukin-6 (human, UniProt P05231 30-212); experiment: cell-based or functional assay
T1 construct: Recombinant human IL-6 came from several suppliers; also called IL-6; rhIL-6

[2] = target: T1, recombinant human interleukin-6; experiment: Luminex-based assay of IL-6 binding to IL-6 receptor
[3] = target: T1, recombinant human interleukin-6; experiment: solid-phase ELISA on coated rIL-6 and solid-phase RIA with 125I-rIL-6, hybridoma supernatant

T1 sequence (P05231 30-212 limits assumed): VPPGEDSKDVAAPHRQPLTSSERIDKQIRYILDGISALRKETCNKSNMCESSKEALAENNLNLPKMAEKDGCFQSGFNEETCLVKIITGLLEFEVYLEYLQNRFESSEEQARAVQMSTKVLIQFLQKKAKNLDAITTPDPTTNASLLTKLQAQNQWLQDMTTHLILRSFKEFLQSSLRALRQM

- IL−6依存性7TD1細胞増殖バイオアッセイ [1]: 100%
- percent inhibition of IL-6 binding to IL-6 receptor [2]: 100%
- binding result [3]: binds
B1: mouse anti-IL-6 monoclonal antibody CLB-8 (antibody, V domains shown)
VH: EVQLVESGGKLLKPGGSLKLSCAASGFTFSSFAMSWFRQSPEKRLEWVAEISSGGSYTYYPDTVTGRFTISRDNAKNTLYLEMSSLRSEDTAMYYCARGLWGYYALDYWGQGTSVTVSS
VL: QIVLIQSPAIMSASPGEKVTMTCSASSSVSYMYWYQQKPGSSPRLLIYDTSNLASGVPVRFSGSGSGTSYSLTISRMEAEDAATYYCQQWSGYPYTFGGGTKLEIK
notes: also called CLB-IL6-8; CLB.IL-6/8
- IL−6誘発性細胞増殖の阻害 (7TD1 cells, ATP luminescence), EC 50 [1]: 7.2 ng/mL
